From publication PMC6109178

How the values were obtained:
[1] = molecular target: Mouse P-gp-ECL13&4-h19 (mouse) (UniProt P21447); assay: flow cytometry on cells; apparent Kd; HeLa cells expressing the P-gp variant (300,000 cells/assay) stained with UIC2 at 0.01 to 3 µg per 100,000 cells for 30 min at 37 °C; GraphPad Prism
[2] = molecular target: Mouse P-gp-ECL1&4-h18 (mouse) (UniProt P21447); assay: as above
[3] = molecular target: Mouse P-gp-ECL13&4-h19 (mouse) (UniProt P21447); assay: flow cytometry on cells; UIC2 shift assay: HeLa cells incubated 5 min at 37 °C with DMSO or 20 µM cyclosporine A before UIC2 at saturated concentration (3 µg/100,000 cells), 30 min; FITC-labeled anti-mouse secondary antibody
[4] = molecular target: Mouse P-gp-ECL1&4-h18 (mouse) (UniProt P21447); assay: as above

Kd [1]: 5.1 nM | Kd [2]: 11.7 nM | fold increase of UIC2 binding after 20 µM cyclosporine A against DMSO [3]: 1.2 to 1.4 fold | fold increase of UIC2 binding after 20 µM cyclosporine A against DMSO [4]: 1.4 to 1.7 fold
Substance: UIC2 monoclonal antibody
